The text below walks through data of patent US20230218735A1 (Pfizer, published 2023).

One assay deals with C. difficile toxin A (Clostridium difficile, UniProt P16154 1-2710). Briefly: cell-based or functional assay.
The target of assay [1] is T1, genetically modified and chemically inactivated C. difficile toxoid A (Clostridium difficile, UniProt P16154 2-2710).
T1 construct: also called TxdA; the toxoid
Briefly: ITC. Background: ITC needs no label: the signal is the heat of the interaction.

B1: hCDIFA-23 (antibody, V domains shown)
VH: QVQLVQSGGGVVQPGRSLRLSCAASGFTFSQYSIHWVRQAPGKGLEWVAVMSYDGRNKYYADSVKGRFTISGDNSRNTLYVQMNSLRAEDTAIYYCARDLIKAAMVPAFDIWGQGTMVTVSS
VL: TALTQPRSVSGSPGQSVTISCTGTNSDVADYNYVSWYQHHPGKAPKLMIYDVTKRPSGVPDRFSGSKSGNTASLTISGLQAEDEADYYCCSYAARYTFGGGTKLTVLG
For B1, in the assay with C. difficile toxin A, the “EC50 TcdA [RLU], toxin neutralization assay (TNA) on IMR90 cells” value (from here on “EC50 TcdA [RLU]”) is 136 RLU.

B2: hCDIFA-38 (antibody, V domains shown)
VH: QVQLVESGPALVKPTQTLTLTCTFSGFSLSSIGMCVSWIRQPPGKALEWLARIDWDDSKYYSPSLQARLAISKDTSKNQVVLTMTNVDPMDAGTYYCARTSATLTGPSRVFDYWGQGSLVTVSS
VL: DVVMTQSPATLSVSPGERATLSCRASQSVRFNLAWYQQKPGQAPRLLISGASTRATGIPARFSGSGSGTEFTLTISSLQSEDFAVYYCQQYNNWPPLTFGGGTKVEIKR
On to B2, for which the “EC50 TcdA [RLU]” value in the assay with C. difficile toxin A turned out to be 10500 RLU.

B3: hCDIFA-34 (antibody, V domains shown)
VH: QVQLVESGGDLIQPGESLRLSCVASGFTVGSHYMTWVRQAPGKGLEWVSTIYSGGTTKYADSVKGRFTISRDNSKNTLFLQMNSLRTEDTAVYFCARGSAFSSSWWLVDFWGQGTLVTVSS
VL: SYELTQPPSVSVAPGKTARITCEDNYVGGNNVHWYQQKPGQAPVLVVSDDNARPSGIPERVSGSKSGNTATLIINRVEVGDEADFYCQVWDSSRDRVLFGGGTKLTVLG
With B3, the “EC50 TcdA [RLU]” value with C. difficile toxin A worked out at 247 RLU.

B4: hCDIFA-39 (antibody, V domains shown)
VH: QVQLQESGPGLVKPSETLSLTCTLSGGSISSDNYYWGWVRQPPGKGLEWIGSIYYSGSTYYNPSLKSRVFISVDMSKNQFSLKLSSVTAADTAVYYCARHTQGLGILRYFDWWTRPFDYWGQGTLVTVSS
VL: DIQMTQSPSSLSASVGDRVTITCRASQNINTYLSWYRQKPGKAPELLIYAASNLQSGVPSRFSGSGSGTDFTLTIHSLQPEDFATYYCQQSYTTLTFGGGTKVEIKR
B4: in the assay with C. difficile toxin A, the “EC50 TcdA [RLU]” value turned out to be 400 RLU.

B5: hCDIFA-3 (antibody, V domains shown)
VH: EVQLVESGGGVVQPGRSLRLSCAASGFTFSSYAMHWVRQAPGKGLEWVAVISKDGDNKYYTDPLKGRFTISRDNSKNTLYLQMISLRGEDTAVYYCARDLNIWSGYYLRTINYYMDVWGKGTTVTVSS
VL: DIVMTQSPSFLSASVGDRVTITCRASQGIRNDLGWYQQKPGKAPKLLIYAASTLQSGVPSRFSGSGSGTEFTLTISSLQPEDFATYYCQQPGSHPPFGGGAKLEIKR
On to B5, for which the “EC50 TcdA [RLU]” value with C. difficile toxin A was 199000 RLU.

B6: hCDIFA-26 (antibody, V domains shown)
VH: EVQLLESGAEVKKPGESLRISCNCSGYSFTSYWIGWVRQMPGEGLEWMGLIQPGGDSYPRYSPSFQGQVTISADKSISTAYLQWRSLKASDTAMYYCARRGFDHWGQGTLVTVSS
VL: NFMLTQPPSASGAPGQRVTISCSGSSSNIGSNTVNWYQQLPGTAPKLLIYSNIQRPSGVPDRFSGSKSGTSASLAISGLQSDDEADYYCSAWDDSLNGYVFGTGTKVTVLG
In general, Kd refers to the free concentration of one partner at which half of the binding sites on the other are occupied at equilibrium, for simple one-to-one binding. Read a high Kd as lower affinity. For B6, in assay [1], the “DH” value was -9.1 kcal/mol, the Kd came to 8 nM and the Stoichiometry worked out at 1.98.

B7: hCDIFA-30 (antibody, V domains shown)
VH: EVQLVESGAEVKRPGASVKVSCRTSAYAFTNYFMHWVRQAPGQGLEWVAVINLSGGNTNYAQSFQGRVNMTRDTSTSTVYMELSSLRSEDTAVYFCAIGGIWFGEYPNWFDPWGQGTLVTVSS
VL: NFMLTQPPSVSAAPGRKVTVSCSGSSSNIGNNYVSWYQQFPGTAPKLLIYDNNKRHSGIPARFSGSKSGTSATLGITGLQTGDEADYYCATWDSSLKYVVFGGGTKLTVLG
Consider B7, for which the “EC50 TcdA [RLU]” value with C. difficile toxin A came to 1480 RLU.

B8: hCDIFA-18 (antibody, V domains shown)
VH: QVQLVQSGAEVKKPGASVKVSCKASGYTFTSYAMHWVRQAPGQRLEWMGWINAGNGNTKYSQEFQGRVTITRDTSASTAYMELSSLRSEDMAVYYCARAHLPGYCSSTSCYIMYVWGKGTTVTVSS
VL: not shown
As to B8, the “EC50 TcdA [RLU]” value in the assay with C. difficile toxin A amounted to 1330 RLU.

B9: hCDIFA-33 (antibody, V domains shown)
VH: QVQLVQSGGGLVQPGGSLRLSCVASGFTFSSYAMTWVRQAPGMGLEWVSTISLSGSTIYYADSVKGRFTISRDNPKNTLYLQMNSLRAEDTAVYYCAEGQGAFDFWGQGTMVTVSS
VL: NFMLTQPPSASGTPGQRVTISCSGSTSNIGGNTVNWYQQLPGTAPKLLIYSNIQRPSGVPDRFSGSKSGTSASLAIRGLRSEDEADYYCSTWDDSRKGVVFGGGTKLTVLG
Consider B9, for which, in assay [1], the “DH” value was -3 kcal/mol, binding was characterised by a dissociation constant (Kd) of 31 nM and the Stoichiometry worked out at 0.83.

B10: hCDIFA-20 (antibody, V domains shown)
VH: EVQLVQSGAEVRIPGASVKVSCKASGFTFNDYYIHWVRQAPGQGLEWMGWINAHNGVTSYAQNFQDRVTMTRDTSITTAYMDLSRLRSDDTAVYYCARDCSTSSCFDHWGQGSLVTVSS
VL: SYELTQPPSLSVAPGKTAKITCGGNNIGSKGVHWYQQRPGQAPVLVIYYNADRPSGIPERFSGSNSGNTATLTISRVEAGDEADYFCQVWDGDSAHRVFGGGTKLTVLG
Take B10: the “EC50 TcdA [RLU]” value with C. difficile toxin A came out at 3200 RLU.

B11: hCDIFA-36 (antibody, V domains shown)
VH: QVQLVQSGGGLVQPGRSLRLSCAASGFAFDDYALHWVRQVPGKGLEWVSGISWNSDSIAYADSVKGRFTISRDNAKNSLYLQMNGLRAEDTALYYCAKDRTIASAGIPDEFQHWGQGTLVTVSS
VL: DIVMTQSPATLSVSPGERATLSCRASQSVSYKVAWYQQKPGQAPRLLIYGASTRDTGIPARFSGSGSGTDFTLTISSLQSEDSAVYYCQQYSNWPTTFGQGTKVEIKR
Regarding B11, the “EC50 TcdA [RLU]” value with C. difficile toxin A came out at 426000 RLU.

B12: hCDIFA-13 (antibody, V domains shown)
VH: QVQLVQSGAEVKKPGASVTVSCRTSGYTFTNDYVHWVRQAPGQGLEWVGLINPSGGNTVYAQSFQGRVTMTRDTSTSTVYMELSSLRSEDTAVYYCARVVHDYGKFDPWGQGTPVTVSS
VL: SYELTQPASVSGSPRQSITISCTGTSSDVGNYNLVSWYQQYPGKAPRLIIFEVRQRPSGVSNRFSGSKSGNTASLTISGLQAADEADYYCCSYAGRSIWVFGGGTKLTVLG
For the molecule B12, in the assay with C. difficile toxin A, the “EC50 TcdA [RLU]” value was found to be 26300 RLU.

B13: hCDIFA-29 (antibody, V domains shown)
VH: EVQLLESGAEVKKPGASIRVSCKASGHSFTDSFTDYYFHWVRQAPGQGLEWMGMINPSVGSTNYAQKFQGRVTLTRDTSTHTVYMELSSLRSEDTAVYFCARDPWFCSRGTSCYYFGLWGQGTLVTVSS
VL: DIQLTQSPSSLSASVGDSVTITCRASQSISTYLNWYQQKPGKAPKLLIYDASSLLSGVPSRFSGGGSGTDFTLTISSLQPEDFATYYCQQSDISPPVFGRGTKVEIKR
On to B13, for which, in assay [1], the “DH” value is -15.6 kcal/mol, the equilibrium dissociation constant (Kd) amounted to 74 nM and the Stoichiometry was 9.2.

B14: hCDIFA-48 (antibody, V domains shown)
VH: QVQLVQSGAEVKKPGASVKVSCKASGYTFTTYAMHWVRQAPGHRLEWMGWINPVNGNSKHSQNFQGRVTITRDTSASTVYMELSSLRSEDTAVYYCARDTSSGVILANNFDYWGQGTLVTVSS
VL: DIVMTQSPATLSLSPGERATLSCRASQSVDSYLTWYQQKPGQAPRLLIYDSSNRATGIPARFSGSGSGTDFTLTISSLEPEDFAVYYCHQRSNWPNTFGQGTKVEIKR
For B14, in assay [1], the “DH” value is -7.2 kcal/mol; the affinity, expressed as Kd, was 87 nM; the Stoichiometry was 0.77.

B15: hCDIFA-22 (antibody, V domains shown)
VH: QVQLVQSGGGLVQPGGSLRLSCSASGFTFSSYAMHWVRQAPGKGLEYVSAISSNGGSTYYADSVKGRFTISRDNSKNTLYLQMSSLRAEDTAVYYCVRAAAGNWFDPWGQGTLVTVSS
VL: AIRMTQSPSSVSASVGDRVTITCRASQGISSWLAWYQQKPGKAPKLLIYAASSLQSGVPSRFSGSGSGTDFTLTISSLQPEDFATYYCQQANSFPLTFGGGTKVDIKR
B15: in the assay with C. difficile toxin A, the “EC50 TcdA [RLU]” value is about 16 RLU.

B16: hCDIFA-16 (antibody, V domains shown)
VH: QVQLQESGPGLVKPSETLSLTCTVSGDSISDYYWSWIRQPPGRGLEWIGYIYYSGSTNYNPSLKSRLTISVDTSKNQFSLNLSSVTAADTAVYYCARSMGHYDFWNTYFPCFDPWGQGTLVTVSS
VL: EIVMTQSPGTLSLSPGERATLSCRASQSVSSGYLAWYQQKPGQAPRLLIYGASSRATGIPDRFRGSGSGTDFTLTISRLEPEDFAVYYCQQYGSSPLTFGGGTKLEIKR
B16: in the assay with C. difficile toxin A, the “EC50 TcdA [RLU]” value amounted to 298 RLU.

B17: hCDIFA-14 (antibody, V domains shown)
VH: EVQLVQSGAEVKKPGSSVKVSCKASGGTFRSYAISWVRQAPGQGLEWMGGFIPIPGIRNYAQKFQGRLTISADESTSTGYMELSSLTSEDTAVYYCARGLGRVSHYFYYMDVWGKGTTVTVSS
VL: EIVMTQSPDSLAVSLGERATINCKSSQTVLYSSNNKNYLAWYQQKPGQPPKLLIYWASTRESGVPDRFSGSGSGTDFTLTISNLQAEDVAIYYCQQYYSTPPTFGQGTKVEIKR
Consider B17, for which, in the assay with C. difficile toxin A, the “EC50 TcdA [RLU]” value is 19800 RLU.

B18: hCDIFA-12 (antibody, V domains shown)
VH: QVQLVQSGAEVKKPGASVKVSCKASGYTFSDSYMHWVRQAPGQGLEWMGRINPNSGGTNYAQKFQGRVTMTRDTSIKTVYMELSRLRSDDGAIYYCARGMGRTTTGLFDLWGQGTLVTVSS
VL: DIVMTQSPATLSLSPGERATLSCKANESVGSYLVWYQQKFGQAPRLLIYDASNRATGIPARFSGSGSGTDFTLTISSLEPEDFAVYYCQQRSNWPPTFGGGTKVDIKR
Consider B18, for which, in the assay with C. difficile toxin A, the “EC50 TcdA [RLU]” value is about 115 RLU.

B19: hCDIFA-28 (antibody, V domains shown)
VH: QVQLVQSGAQVKKPGSSVKVSCKASGYAFISYGITWVRQAPGQGLEWMGWISAYNGDTNYAQKFQGRVTMTTDTSTNTAYMELRSLRSDDTAVYYCARALTRVAVALPHPYWGQGTLVTVSS
VL: not shown
Consider B19, for which the “EC50 TcdA [RLU]” value in the assay with C. difficile toxin A is 25800 RLU.

B20: hCDIFA-2 (antibody, V domains shown)
VH: QVQLVESGGGLVQPGGSLRLSCAASGFTFSSYAMSWVRQAPGKGPEWVSNIIGSGGSTYFTDSVKGRFTISRDNSKNTVYLQMNSLRAEDTAVYYCAKEGCRGYDSGNYFAPKMFCLWGQGTLVTVSS
VL: NFMLTQPASVSGSPGQSITISCTGTSSDIGAYNYVSWYQQHPGTAPKLMIYEVSHRPSGVSNRFSGSKSGDTASLTISGLQAEDEADYYCSSYTTSITYVFGTGTKLTVLG
Turning to B20, in the assay with C. difficile toxin A, the “EC50 TcdA [RLU]” value was about 38 RLU.
